Reference: patent publication US12319739 (F STAR DELTA, dated 2025)
Where a chain is given by its changes, count along the chain named.

T1: cMSLN-His-Avi (cynomolgus, single biotin on the Avi tag in the biotinylated form)
T1 construct: Monomeric; also called cyno MSLN-His-Avi; cMSLN-Avi-His
T1 chain: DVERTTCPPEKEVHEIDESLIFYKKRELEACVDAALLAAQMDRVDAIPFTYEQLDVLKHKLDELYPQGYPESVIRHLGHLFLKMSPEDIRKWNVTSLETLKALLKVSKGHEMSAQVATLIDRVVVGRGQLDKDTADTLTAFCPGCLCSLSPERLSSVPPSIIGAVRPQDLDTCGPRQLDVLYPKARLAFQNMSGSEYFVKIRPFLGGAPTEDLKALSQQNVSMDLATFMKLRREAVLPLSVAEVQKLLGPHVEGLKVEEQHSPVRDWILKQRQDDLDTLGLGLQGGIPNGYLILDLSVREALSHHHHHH

B1: FS22-172-003-AA/FS28-024 (bispecific antibody, human IgG1, kappa, L234A L235A, V domains shown)
VH: EVQLLESGGGLVQPGGSLRLSCAASGFTLSYSSMSWVRQAPGKGLEWVSFITPSTGYTHYADSVKGRFTISRDNSKNTLYLQMNSLRAEDTAVYYCARRALTFDYWGQGTLVTVSS
VL: EIVLTQSPGTLSLSPGERATLSCRASQSVSSSYLAWYQQKPGQAPRLLIYGASSRATGIPDRFSGSGSGTDFTLTISRLEPEDFAVYYCQQASSYPLTFGQGTKVEIKR
notes: IgG1 mAb^2 with LALA; also called FS28-024 in CD137 mAb^2 format
B2: FS22-172-003-AA/FS28-256 (bispecific antibody, human IgG1, kappa, L234A L235A, V domains shown)
VH: EVQLLESGGGLVQPGGSLRLSCAASGFTFTNTYMSWVRQAPGKGLEWVSNISPTYSTTNYADSVKGRFTISRDNSKNTLYLQMNSLRAEDTAVYYCARYNSYQGGLDYWGQGTLVTVSS
VL: B1 VL with A92S, S93Y, S94Y, L97I
notes: IgG1 mAb^2 with LALA
B3: FS22-172-003-AA/FS28-024-053 (bispecific antibody, human IgG1, kappa, L234A L235A, V domains shown)
VH: B1 VH with T102V
VL: B1 VL
notes: IgG1 mAb^2 with LALA
B4: FS22-172-003-AA/FS28-256-018 (bispecific antibody, human IgG1, kappa, L234A L235A, V domains shown)
VH: B2 VH with N31Q, S101A, G104I
VL: B1 VL with A92S, S93Y, S94Y, L97I
notes: IgG1 mAb^2 with LALA
B5: FS22-172-003-AA/FS28-256-005 (bispecific antibody, human IgG1, kappa, L234A L235A, V domains shown)
VH: B2 VH with N31E
VL: B1 VL with S93L, S94G, L97H
notes: IgG1 mAb^2 with LALA
B6: FS22-172-003-AA/FS28-256-023 (bispecific antibody, human IgG1, kappa, L234A L235A, V domains shown)
VH: B2 VH with N31Q, S101A, G104I
VL: B1 VL with A92H, S93N, S94Q, L97N
notes: IgG1 mAb^2 with LALA
B7: FS22-172-003-AA/FS28-024-051 (bispecific antibody, human IgG1, kappa, L234A L235A, V domains shown)
VH: B1 VH with T102I
VL: B1 VL
notes: IgG1 mAb^2 with LALA
B8: FS22-172-003-AA/FS28-256-021 (bispecific antibody, human IgG1, kappa, L234A L235A, V domains shown)
VH: B2 VH with N31H, S75N, S101A, Q103H, G104A, G105A
VL: B1 VL with A92H, S93N, S94Q, L97N
notes: IgG1 mAb^2 with LALA
B9: FS22-172-003-AA/FS28-256-012 (bispecific antibody, human IgG1, kappa, L234A L235A, V domains shown)
VH: B2 VH with N31H, S75N, S101A, Q103H, G104A, G105A
VL: B1 VL with A92S, S93Y, S94Y, L97I
notes: IgG1 mAb^2 with LALA
B10: FS22-172-003-AA/FS28-256-014 (bispecific antibody, human IgG1, kappa, L234A L235A, V domains shown)
VH: B2 VH with N31D, S101A, Q103A, G104A
VL: B1 VL with A92S, S93Y, S94Y, L97I
notes: IgG1 mAb^2 with LALA
B11: FS22-172-003-AA/FS28-185 (bispecific antibody, human IgG1, kappa, L234A L235A, V domains shown)
VH: EVQLLESGGGLVQPGGSLRLSCAASGFTFTTSAMSWVRQAPGKGLEWVSRINPYEGETNYADSVKGRFTISRDNSKNTLYLQMNSLRAEDTAVYYCARGWSIATYYKSAMDYWGQGTLVTVSS
VL: EIVLTQSPGTLSLSPGERATLSCRASQSVSSSYLAWYQQKPGQAPRLLIYGASSRATGIPDRFSGSGSGTDFTLTISRLEPEDFAVYYCQQSSYSAPVTFGQGTKVEIKR
notes: IgG1 mAb^2 with LALA; also called FS28-185 in CD137 mAb^2 format

Target: human CD137 on primary human CD8+ T cells (human, UniProt Q07011 24-255)
Sequence (Q07011 24-255): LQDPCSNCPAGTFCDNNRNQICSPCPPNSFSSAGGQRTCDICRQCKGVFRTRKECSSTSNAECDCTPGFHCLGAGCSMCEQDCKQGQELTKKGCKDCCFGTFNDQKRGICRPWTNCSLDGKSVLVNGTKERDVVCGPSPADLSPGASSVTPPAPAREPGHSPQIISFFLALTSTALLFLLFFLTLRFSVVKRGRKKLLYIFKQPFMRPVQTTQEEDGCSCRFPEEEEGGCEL
Assay: cell-based or functional assay

Emax (IL-2 pg/ml), NCI-H226 co-culture, Donor A | Emax (IL-2 pg/ml), NCI-H226 co-culture, Donor B | IL-2 release EC50, NCI-H226 co-culture, Donor A | IL-2 release EC50, NCI-H226 co-culture, Donor B | Binder
1120 pg/mL | 1380 pg/mL | 0.02 nM | 0.03 nM | B1
1260 pg/mL | 8590 pg/mL | 34 nM | 22.2 nM | B2
1010 pg/mL | 1440 pg/mL | 0.07 nM | 0.04 nM | B3
1260 pg/mL | 903 pg/mL | 3.22 nM | 3.71 nM | B4
1100 pg/mL | – | 1.63 nM | – | B5
1960 pg/mL | 975 pg/mL | 0.64 nM | 0.23 nM | B6
1130 pg/mL | 1800 pg/mL | 0.08 nM | 0.04 nM | B7
1780 pg/mL | 1000 pg/mL | 0.06 nM | 0.04 nM | B8
1550 pg/mL | 1100 pg/mL | 1.56 nM | 1.67 nM | B9
1360 pg/mL | – | 3.58 nM | – | B10

Target: T2, hMSLN-His-Avi (human, UniProt Q13421 296-598, single biotin on the Avi tag in the biotinylated form)
T2 construct: Monomeric; also called human MSLN-His-Avi; hMSLN-Avi-His
T2 sequence (Q13421 other isoform, or with tags, fused parts or gaps): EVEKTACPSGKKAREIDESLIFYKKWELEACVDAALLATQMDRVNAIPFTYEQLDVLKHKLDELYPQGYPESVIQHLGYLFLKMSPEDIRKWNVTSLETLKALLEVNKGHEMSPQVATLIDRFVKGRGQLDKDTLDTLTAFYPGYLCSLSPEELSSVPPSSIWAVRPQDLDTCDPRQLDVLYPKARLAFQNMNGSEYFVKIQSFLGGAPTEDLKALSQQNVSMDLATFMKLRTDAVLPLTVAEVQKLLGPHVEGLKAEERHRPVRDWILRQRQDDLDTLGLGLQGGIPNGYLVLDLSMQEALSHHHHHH
Assay: SPR, mAb2 captured on Protein G, hMSLN-His-Avi in solution
Procedure: (§1) The association time was 5 min and the dissociation time was 5 min. Running buffer was HBS-EP (GE Healthcare BR100188). Flow cells were regenerated by injecting Glycine-HCl pH2.1 at a flow rate of 30 μl/min for 15 seconds. The data was analysed as described in Example 7.1.

Kd | Binder
46.5 nM | B1
1210 nM | B2
46.4 nM | B3
56.2 nM | B6
42.4 nM | B7
19.6 nM | B8
809 nM | B9
248 nM | B11

Target: T2, hMSLN-His-Avi
Assay: SPR, hMSLN-His-Avi immobilised ~100 RU, mAb2 injected
Procedure: (§2) 7.1 Binding of CD137/MSLN mAb2 to Human MSLN Under Avid Conditions—Antigen Capture Method Binding of all mAb^2 to MSLN immobilised on a BIAcore chip was tested to determine the binding affinity to human MSLN under avid conditions, where a high concentration of immobilised antigen is available to allow the antibody to bind avidly. […] The association time was 5 min and the dissociation time was 10 min. Running buffer was HBS-EP (GE Healthcare BR100188). Flow cells were regenerated by injecting Glycine-HCl pH1.5 at a flow rate of 30 μl/min for 30 seconds. Data were analysed by double referencing against a flow cell which was intentionally left blank (no antigen coating). The binding kinetics were fitted with a 1:1 Langmuir model to generate binding association (k_a) and dissociation (k_d) rates. Equilibrium binding constants (K_D) were calculated by dividing the dissociation rate by the association rate for each sample. Data analysis was performed with BiaEvaluation software version 3.2.

Kd | Binder
0.39 nM | B1
36 nM | B2
0.42 nM | B3
3.09 nM | B6
0.4 nM | B7
2.3 nM | B8
3.12 nM | B9
50.5 nM | B11

Target: T2, hMSLN-His-Avi
Assay: ratio of SPR KDs
Procedure: as §2, §1

KD ratio in solution/immobilised human MSLN | Binder
119 | B1
34 | B2
111 | B3
18 | B6
105 | B7
9 | B8
259 | B9
5 | B11

Target: T1, cMSLN-His-Avi
Assay: SPR, mAb2 captured on Protein G, cMSLN-His-Avi in solution
Procedure: as §1

Kd | Binder
170 nM | B1
848 nM | B2
166 nM | B3
44.2 nM | B6
153 nM | B7
14.2 nM | B8
712 nM | B9
294 nM | B11

Target: T3, endogenous cell surface human MSLN (human, UniProt Q13421 296-598)
T3 construct: whole, on cells; The cell line is named under assay; also called cell-surface MSLN on NCI-H226, OVCAR-3 and AsPC-1 cells
T3 sequence (Q13421 other isoform, or with tags, fused parts or gaps limits assumed): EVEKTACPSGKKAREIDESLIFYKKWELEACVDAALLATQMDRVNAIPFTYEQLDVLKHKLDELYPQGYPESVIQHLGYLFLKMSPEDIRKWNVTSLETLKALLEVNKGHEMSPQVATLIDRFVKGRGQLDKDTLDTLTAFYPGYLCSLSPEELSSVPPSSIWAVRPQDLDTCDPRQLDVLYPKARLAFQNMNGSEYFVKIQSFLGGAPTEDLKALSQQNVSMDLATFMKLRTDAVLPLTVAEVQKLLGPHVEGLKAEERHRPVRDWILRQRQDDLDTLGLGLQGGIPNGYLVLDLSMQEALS
Assay: flow cytometry, NCI-H226 cells + 20 nM soluble MSLN
Procedure: (§3) To confirm binding to cell surface MSLN, mAb² listed in Table 9 were analysed for binding to endogenous cell surface MSLN on the human lung cancer cell line NCI-H226. In addition, and because MSLN can be found in blood in a shed soluble form, there is a risk that this circulating MSLN might affect exposure and ultimately potency of our mAb². To confirm that presence of soluble MSLN has minimal impact, additional binding experiments to NCI-H226 cells were performed in the presence of 20 nM soluble MSLN which is 10-20 times the level of soluble MSLN found to be of diagnostic value for defining malignant mesothelioma and lung cancer patients as MSLN positive (Cui et al., 2014). Briefly, NCI-H226 cells (ATCC CRL-5826) were harvested from T175 cell culture flasks using Accutase (Gibco, A11105-01).
(§4) In both cases, cells were centrifuged at 1200 rpm for 3 min and resuspended in ice cold FACS buffer made up of DPBS (Life Technologies, 14190169) and 1% BSA (Sigma-Aldrich, A7906) at 2×10⁶ cells/ml and 50 μl per well was seeded in a 96-well V-bottom plate (Costar, 3894). All antibodies tested were diluted in FACS buffer in 120 μl at a concentration range of 0.01-200 nM (4-fold dilutions). The NCI-H226 cells were then centrifuged, supernatant removed and cells resuspended in 100 μl of each mAb dilution and incubated at 4° C. for 45 min. Cells were washed twice by centrifugation with 150 μl FACS buffer, resuspended in 100 μl containing goat anti-human IgG (γ-chain specific) F(ab')2 fragment-R-Phycoerythrin antibody (Sigma, P8047) diluted 1:1000 in FACS buffer and incubated at 4° C. for 45 min. The cells were washed once with 150 μl FACS buffer and then with 150 μl DPBS, resuspended in 150 μl DPBS containing DAPI (Biotium, 40043) at 1:10.000 and read on the BDCantoII or iQue (Intellicyt).

EC50 | Emax (MFI) | Binder
3.05 nM | 792000 MFI | B1
52.9 nM | 200000 MFI | B2
2.77 nM | 788000 MFI | B3
4.09 nM | 357000 MFI | B4
0.856 nM | 424000 MFI | B5
2.13 nM | 625000 MFI | B6
3.06 nM | 798000 MFI | B7
9.49 nM | 774000 MFI | B8
6.36 nM | 486000 MFI | B9
1.09 nM | 514000 MFI | B10
28.4 nM | 4930 MFI | B11

Target: T3, endogenous cell surface human MSLN
Assay: flow cytometry, NCI-H226 cells
Procedure: as §3, §4

EC50 | Emax (MFI) | Binder
0.389 nM | 773000 MFI | B1
47.1 nM | 174000 MFI | B2
0.579 nM | 783000 MFI | B3
3.6 nM | 348000 MFI | B4
0.729 nM | 441000 MFI | B5
1.29 nM | 618000 MFI | B6
0.477 nM | 768000 MFI | B7
4.02 nM | 689000 MFI | B8
5.7 nM | 516000 MFI | B9
0.727 nM | 476000 MFI | B10
22.9 nM | 4930 MFI | B11
